The source of these data is patent publication US12303551B2, “Cellular immunotherapy compositions and uses thereof” (CERO THERPEUTICS HOLDINGS, INC., priority 2018, dated 2025).

One assay has as its system SCC152 target cells. The experiment in a line: Phagocytosis of SCC152 by CD4+ T cell/CER, fluorescence microscopy with hybrid capture. It counts as cell-based. As to conditions: TRAF-domain CERs, 4 hours, 1:1:0.5 (CD8:CD4:target cell); versus CD4+ control + CD8+/E7 TCR. The protocol:
FIG. 28 is a bar graph representing quantification of CD4+ T cell-CER mediated phagocytosis of SCC152 target cells. Results calculated as ((number of phagocytic target events)/(total number of effectors))*100 from 3×3 40× images, 4 hours after initiation of co-culture assay. CD8+ T cells transduced with HPV16 E7 TCR and CD4+ T cells transduced with selected CERs (CER5, CER17, CER19, CER21, CER23, CER26, CER27, CER103b, CER104, CER105, CER106, or CER116) were co-cultured with SCC152 squamous head and neck carcinoma target cells at a 1:1:0.5 ratio for 4 hours and imaged.
FIG. 29 is a bar graph representing quantification of CD4+ T cell-CER mediated phagocytosis of SCC152 target cells. Results calculated as (median area ratio of target events in effector cells*% phagocytosis) from 3×3 40× images, 4 hours after initiation of co-culture assay. CD8+ T cells transduced with HPV16 E7 TCR and CD4+ T cells transduced with selected CERs (CER5, CER17, CER19, CER21, CER23, CER26, CER27, CER103b, CER104, CER105, CER106, or CER116) were co-cultured with SCC152 squamous head and neck carcinoma target cells at a 1:1:0.5 ratio for 4 hours and imaged.
(§1) FIG. 55 is a bar graph representing quantification of CD4+ T cell-CER mediated phagocytosis of SCC152 target cells. Percent phagocytosis was calculated as ((number of phagocytic target events)/(total number of effector cells))*100. These numbers were calculated from 3×3 images captured by Keyence BZ-X710 fluorescence microscope at 40× resolution, 4 hours after initiation of co-culture assay. CD8+ T cells transduced with HPV16 E7 TCR and CD4+ T cells transduced with a selected CER (CER29, CER30, CER110, CER112, CER113, CER114, CER116, or CER117) were co-cultured with SCC152 target cells at a 1:1:0.5 ratio (CD8:CD4:target cell) for 4 hours and imaged.
as §1, with “56” for “55”, “Adjusted phagocytic index” for “Percent phagocytosis”, “(median area ratio” for “((number”, “of” for “of phagocytic”, “events in” for “events)/(total number of”, “cells*% phagocytosis).” for “cells))*100.”
Phagocytic activity of CD4+ T cell/CER+CD8+ T cell/HPV16 E7 TCR combinations co-cultured with SCC152 cells was visualized and quantified using KEYENCE BZ-X710 fluorescence microscope, […] and hybrid capture software.

Another assay has as its system SCC152 cells. The experiment in a line: Elimination of GFP-expressing SCC152 target cells over time (quantification and time lapse imaging). It is filed as cell-based. As for the experimental part: Target SCC152 cells were co-cultured with CD8+ T cells transduced with HPV E7 TCR+CD4+ T cells transduced with a selected CER, or controls (CD8+ T cell transduced with HPV E7 TCR+CD4+ transduced control) at a 1:1:1 ratio. The number of target cells were quantified using imaging software. 0 hours, 24 hours, and 48 hours are shown from left to right.
FIG. 21 is time lapse imaging from 96-well co-culture experiments comprising CD8+ T cells transduced with HPV16 E7 TCR+CD4+ T cells transduced with CER5, CER17 or CER19 incubated with SCC152 target cells at a 1:1:1 ratio. SCC152 HPV+ target cells were quantified using automated cell counting software.
FIG. 22 is time lapse imaging from 96-well co-culture experiments comprising CD8+ T cells transduced with HPV16 E7 TCR+CD4+ T cells transduced with CER21, CER23 or CER26 incubated with SCC152 target cells at a 1:1:1 ratio. SCC152 HPV+ target cells were quantified using automated cell counting software.
FIG. 23 is time lapse imaging from 96-well co-culture experiments comprising CD8+ T cells transduced with HPV16 E7 TCR+CD4+ T cells transduced with CER103b, CER104 or CER105 incubated with SCC152 target cells at a 1:1:1 ratio. SCC152 HPV+ target cells were quantified using automated cell counting software.
FIG. 24 is time lapse imaging from 96-well co-culture experiments comprising CD8+ T cells transduced with HPV16 E7 TCR+CD4+ T cells transduced with CER106, CER116 or CER27 incubated with SCC152 target cells at a 1:1:1 ratio. SCC152 HPV+ target cells were quantified using automated cell counting software.
FIG. 57 is a bar graph showing quantification of loss of SCC152 HPV16+ target cells over time during co-culture assays. SCC152 cells were transduced with green fluorescent protein (GFP) and co-cultured with CD8+ T cells transduced with HPV16 E7 TCR and CD4+ T cells transduced with a selected CER (CER29, CER30, CER110, CER112, CER113, CER114, CER116, or CER117) or a CD4+ T cell control at a 1:1:1 ratio (CD8:CD4:target cell). The number of target cells was quantified at various time points during co-culture (0 hrs, 12 hrs, 24 hrs, and 36 hrs) using fluorescence microscopy and imaging software.
FIG. 58 are fluorescence micrograph images of the co-culture assay described in FIG. 57, showing clearance of the SCC152 cells (pink) as co-culture with CD8+ T cells transduced with HPV16 E7 TCR and CD4+ T cells transduced with a selected CER (columns from left to right: control, CER29, CER30, CER110, or CER112) progresses (rows from top to bottom: 0 hrs, 12 hrs, 24 hrs, and 36 hrs).
FIG. 59 are fluorescence micrograph images of the co-culture assay described in FIG. 57, showing clearance of the SCC152 cells (pink) as co-culture with CD8+ T cells transduced with HPV16 E7 TCR and CD4+ T cells transduced with a selected CER (columns from left to right: control, CER113, CER114, CER116, or CER117) progresses (rows from top to bottom: 0 hrs, 12 hrs, 24 hrs, and 36 hrs).
Elimination of target SCC152 cells was also detected by quantifying green fluorescent protein expression by SCC152 cells over time (0 hr, 24 hr, 48 hr) during co-incubation with CD8+ T cells transduced with HPV16 E7 specific TCR+ CD4 T cells transduced with selected CER (see, FIG. 20).
Elimination of target SCC152 cells was also detected by quantifying green fluorescent protein expression by SCC152 cells over time (0 hr, 12 hr, 24 hr, 36 hr) during co-incubation with CD8+ T cells transduced with HPV16 E7 specific TCR+ CD4+ T cells transduced with selected CER (CER29, CER30, CER110, CER112, CER113, CER114, CER116, or CER117) (see, FIG. 57).

B1: CER110: Chimeric engulfment receptor: Tim4 binding, Tim4 transmembrane, TRAF6 and DAP12 signaling; SEQ ID NO: 145 (protein)
chain: MSKGLLLLWLVTELWWLYLTPAASEDTIIGFLGQPVTLPCHYLSWSQSRNSMCWGKGSCPNSKCNAELLRTDGTRIISRKSTKYTLLGKVQFGEVSLTISNTNRGDSGVYCCRIEVPGWFNDVKKNVRLELRRATTTKKPTTTTRPTTTPYVTTTTPELLPTTVMTTSVLPTTTPPQTLATTAFSTAVTTCPSTTPGSFSQETTKGSAFTTESETLPASNHSQRSMMTISTDIAVLRPTGSNPGILPSTSQLTTQKTTLTTSESLQKTTKSHQINSRQTILIIACCVGFVLMVLLFLAFLMSLLNCENSCGSSQSESDCCVAMASSCSAVTKDDSVGGTASTGNLSSSFMEEIQGYDVEFDPPLESKYECPICLMALREAVQTPCGHRFCKACIIKSIRDAGHKCPVDNEILLENQLFPDNFAKREILSLMVKCPNEGCLHKMELRHLEDHQAHCEFALMDCPQCQRPFQKFHINIHILKDCPRRQVSCDNCAASMAFEDKEIHDQNCPLANVICEYCNTILIREQMPNHYDLDCPTAPIPCTFSTFGCHEKMQRNHLARHLQENTQSHMRMLAYFLGRLVPRGRGAAEAATRKQRITETESPYQELQGQRSDVYSDLNTQRPYYK
modifications: CER110, amino acids 1-22 are signal peptide
B1: the “engulfment of SCC152 target cells (percent phagocytosis, adjusted phagocytic index)” value with SCC152 target cells was “enhanced engulfment”.

B2: CER29: Chimeric engulfment receptor: Tim4 binding, Tim4 transmembrane, TRAF6 signaling; SEQ ID NO: 99 (protein)
chain: MSKGLLLLWLVTELWWLYLTPAASEDTIIGFLGQPVTLPCHYLSWSQSRNSMCWGKGSCPNSKCNAELLRTDGTRIISRKSTKYTLLGKVQFGEVSLTISNTNRGDSGVYCCRIEVPGWFNDVKKNVRLELRRATTTKKPTTTTRPTTTPYVTTTTPELLPTTVMTTSVLPTTTPPQTLATTAFSTAVTTCPSTTPGSFSQETTKGSAFTTESETLPASNHSQRSMMTISTDIAVLRPTGSNPGILPSTSQLTTQKTTLTTSESLQKTTKSHQINSRQTILIIACCVGFVLMVLLFLAFLMSLLNCENSCGSSQSESDCCVAMASSCSAVTKDDSVGGTASTGNLSSSFMEEIQGYDVEFDPPLESKYECPICLMALREAVQTPCGHRFCKACIIKSIRDAGHKCPVDNEILLENQLFPDNFAKREILSLMVKCPNEGCLHKMELRHLEDHQAHCEFALMDCPQCQRPFQKFHINIHILKDCPRRQVSCDNCAASMAFEDKEIHDQNCPLANVICEYCNTILIREQMPNHYDLDCPTAPIPCTFSTFGCHEKMQRNHLARHLQENTQSHMRMLA
modifications: CER29, amino acids 1-22 are signal peptide
With B2, the “engulfment of SCC152 target cells (percent phagocytosis, adjusted phagocytic index)” value in the assay on SCC152 target cells was “enhanced engulfment”.

B3: CER30: Chimeric engulfment receptor: Tim4 binding, Tim4 transmembrane, TRAF2 signaling; SEQ ID NO: 120 (protein)
chain: MSKGLLLLWLVTELWWLYLTPAASEDTIIGFLGQPVTLPCHYLSWSQSRNSMCWGKGSCPNSKCNAELLRTDGTRIISRKSTKYTLLGKVQFGEVSLTISNTNRGDSGVYCCRIEVPGWFNDVKKNVRLELRRATTTKKPTTTTRPTTTPYVTTTTPELLPTTVMTTSVLPTTTPPQTLATTAFSTAVTTCPSTTPGSFSQETTKGSAFTTESETLPASNHSQRSMMTISTDIAVLRPTGSNPGILPSTSQLTTQKTTLTTSESLQKTTKSHQINSRQTILIIACCVGFVLMVLLFLAFLMAAASVTPPGSLELLQPGFSKTLLGTKLEAKYLCSACRNVLRRPFQAQCGHRYCSFCLASILSSGPQNCAACVHEGIYEEGISILESSSAFPDNAARREVESLPAVCPSDGCTWKGTLKEYESCHEGRCPLMLTECPACKGLVRLGEKERHLEHECPERSLSCRHCRAPCCGADVKAHHEVCPKFPLTCDGCGKKKIPREKFQDHVKTCGKCRVPCRFHAIGCLETVEGEKQQEHEVQWLREHLAMLLSSVLEAKPLLGDQSHAGSELLQRCESLEKKTATFENIVCVLNREVERVAMTAEAC
modifications: CER30, amino acids 1-22 are signal peptide
For B3, in the assay on SCC152 cells (0 to 36 hrs, compared to the control), the “elimination of SCC152 cells, time lapse imaging” value was “enhanced elimination of SCC152 cells”. For the same molecule, in the assay on SCC152 cells (by 36 hrs, 1:1:1 ratio (CD8:CD4:target cell), compared to control), the “elimination of SCC152 cells (GFP quantification)” value is listed as “nearly complete elimination”. Besides, the “engulfment of SCC152 target cells (percent phagocytosis, adjusted phagocytic index)” value in the assay with SCC152 target cells is on record as “enhanced engulfment”.
